These results are taken from patent US12138304.

Assay [1] has as its target BG505 SOSIP (HIV-1 (clade A BG505)). As to the kind of experiment: BLI dose response, one site specific binding fit to the average of two experiments.
Assay [2] concerns the target BG505 F14/Vt8 SOSIP (HIV-1 (clade A BG505)). The description is as above.
Assay [3] has as its target BG505 Vt8 SOSIP (HIV-1 (clade A BG505)). Described as above.
The target of assay [4] is BG505 F14 SOSIP (HIV-1 (clade A BG505)). The assay is described as above.
Assay [5] deals with BG505 F14/Vt8 SOSIP (HIV-1 (clade A BG505)). Briefly: BLI dose response, antibody captured on anti-human Fc tips, SOSIP in solution.
In assay [6] the target is BG505 Vt8 SOSIP (HIV-1 (clade A BG505)). Described as above.
Assay [7] deals with BG505 F14 gp160 (cell surface expressed trimer) (HIV-1 (clade A BG505)). As to the kind of experiment: flow cytometry, 293F cells expressing gp160; mean of 3 experiments ± SD. (A flow cytometer gives signals particle by particle.)
Assay [8] has as its target BG505 F14/Vt8 gp160 (cell surface expressed trimer) (HIV-1 (clade A BG505)). The assay is described as above.
In assay [9] the target is BG505 gp160 (cell surface expressed trimer) (HIV-1 (clade A BG505)). The description is as above.
Assay [10] concerns the target BG505 DS gp160 (cell surface expressed trimer) (HIV-1 (clade A BG505)). The assay is described as above.
The target of assay [11] is BG505 Vt8 gp160 (cell surface expressed trimer) (HIV-1 (clade A BG505)). The assay is described as above.
Assay [12] deals with BG505 F14 gp160 (cell surface expressed trimer) (HIV-1 (clade A BG505)). Briefly: flow cytometry, 293F cells expressing gp160, antibody 10 ug/mL.
The target in assay [13] is BG505 F14/Vt8 gp160 (cell surface expressed trimer) (HIV-1 (clade A BG505)). Described as above.
Assay [14] deals with BG505 gp160 (cell surface expressed trimer) (HIV-1 (clade A BG505)). The assay is described as above.
Assay [15] has as its target BG505 DS gp160 (cell surface expressed trimer) (HIV-1 (clade A BG505)). The assay is described as above.
Assay [16] addresses BG505 Vt8 gp160 (cell surface expressed trimer) (HIV-1 (clade A BG505)). Described as above.
The next assay concerns the target soluble CD4 (sCD4) (UniProt P01730). Briefly: SPR, apparent affinity for sCD4. (In general: In SPR one partner is held on a chip, and binding of the other changes the refractive index at the surface.)

VRC01 (antibody): the Kd in [1] was determined as 612 nM; in assay [2], 314 nM; in assay [3], 269 nM; in [4] it was 566 nM. The fold enhancement of affinity relative to BG505 SOSIP in assay [5] and in assay [6] was 2 fold each time.

Consider PGT121 (antibody), for which the Kd in [1] was determined as 222 nM; in assay [2], 262 nM; in [3] it was 260 nM; in [4] it was 219 nM.

Take PGT125 (antibody): the percentage of cells binding in [7] was 54.7%; in assay [8], 37.9%; in [9], 47.1%; in assay [10], 38.2%; in assay [11] it was 43.2%.

Regarding N6 (antibody), the percentage of cells binding came out at 53.9% in assay [7]; 40.3% in assay [8]; 45.3% in assay [9]; 41% in [10]; 44.4% in assay [11]. Besides, the MFI is 568 MFI in assay [12]; 341 MFI in assay [13]; 457 MFI in [14]; 338 MFI in assay [15]; 378 MFI in assay [16].

For VRC26 (antibody), the Kd in assay [1] is 67.6 nM; in assay [2], 50.6 nM; in [3], 60.4 nM; in [4], 50.2 nM.

In the case of PG9 (antibody), the Kd in [1] was determined as 444 nM; in [2] it was 337 nM; in assay [3] it was 335 nM; in assay [4], 45.9 nM.

Turning to CH01 (antibody), the percentage of cells binding in assay [7] worked out at 37.7%; in assay [8] it was 22.1%; in assay [9] it was 32.8%; in assay [10], 20.8%; in [11], 30.2%.

Turning to PGT151 (antibody), the Kd came to 26.9 nM in assay [1], 24 nM in [2], 24 nM in [3] and 23.3 nM in [4].

In the case of BG505 SOSIP, the Kd with soluble CD4 (sCD4) was 67.9 nM.

Consider PGT145 (antibody), for which the Kd in assay [1] was found to be 64.2 nM; in assay [2] it was 80.2 nM; in [3], 68 nM; in assay [4], 76.5 nM. Moreover, the percentage of cells binding in [7] worked out at 48.8%; in [8], 34.8%; in assay [9], 46%; in assay [10], 35.4%; in assay [11], 38.2%.
